Reference: paper PMC8156982, “DNA Aptamers against Vaccinia-Related Kinase (VRK) 1 Block Proliferation in MCF7 Breast Cancer Cells”

Tests used:
[1] = biological target: T1, VRK1 (vaccinia-related kinase 1), recombinant (UniProt Q99986 1-396); test: ELONA; 80 nM; at least twice control; 10 mM sodium phosphate, 0.15 M NaCl, pH 7.5, 1 mM MgCl2, 0.2% BSA; 37 C, 1 h; aptamers denatured at 95 C 10 min then ice 10 min; VRK1 coated on plate (20 or 200 ng/well); conditions: protein: recombinant; tags: 6xHis; label: 5' digoxigenin on both chains; PCR duplex denatured at 95 C and cooled on ice
T1 sequence: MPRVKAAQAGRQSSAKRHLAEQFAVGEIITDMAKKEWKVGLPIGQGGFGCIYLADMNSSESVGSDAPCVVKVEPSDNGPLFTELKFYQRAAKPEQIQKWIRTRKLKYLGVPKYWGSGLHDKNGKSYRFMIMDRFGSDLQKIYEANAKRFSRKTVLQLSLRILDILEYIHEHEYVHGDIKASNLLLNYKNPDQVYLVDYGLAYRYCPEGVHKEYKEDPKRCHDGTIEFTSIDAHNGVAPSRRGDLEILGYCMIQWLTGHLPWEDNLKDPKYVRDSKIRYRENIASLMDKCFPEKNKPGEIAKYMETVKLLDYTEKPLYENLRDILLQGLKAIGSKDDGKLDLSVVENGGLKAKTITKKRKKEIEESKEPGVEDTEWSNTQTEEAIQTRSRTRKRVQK

[2] = biological target: T1, VRK1 (vaccinia-related kinase 1), …; test: ELONA; 1 mM Mg2+; 10 mM sodium phosphate, 0.15 M NaCl, pH 7.5, 1 mM MgCl2, 0.2% BSA; 37 C, 1 h; aptamers denatured at 95 C 10 min then ice 10 min; VRK1 coated on plate (20 or 200 ng/well); conditions: protein: recombinant, tags: 6xHis, label: digoxigenin (5' when made with primer F5)
[3] = biological target: T1, VRK1 (vaccinia-related kinase 1), …; test: ELONA; 40 nM PCR-labeled chain; 10 mM sodium phosphate, 0.15 M NaCl, pH 7.5, 1 mM MgCl2, 0.2% BSA; 37 C, 1 h; aptamers denatured at 95 C 10 min then ice 10 min; VRK1 coated on plate (20 or 200 ng/well); conditions: protein: recombinant; tags: 6xHis; label: digoxigenin (5' when made with primer R5); no G-quadruplex (predicted)
[4] = possible two G-quadruplexes (predicted)

B1: apVRK33 (F+R chains) (mixed)
DNA 1: ACGCTCGGATGCCACTACAGGTTGCGAGGTGGGGGGTGGGTAGGGTGGGAAGTGCCCTCATGGACGTGCTGGTGA
DNA 2: TCACCAGCACGTCCATGAGGGCACTTCCCACCCTACCCACCCCCCACCTCGCAACCTGTAGTGGCATCCGAGCGT
[1]
  binding signal: > 2 fold over control

B2: apVRKF33 (V#F33) (ssDNA)
DNA: B1 DNA 1
[2]; [4]
  Kd: 129 ± 55.6 nM

B3: apVRKF8 (V#F8) (ssDNA)
DNA: ACGCTCGGATGCCACTACAGGGAGGGGGGGGGAAAGTAAGCGGGGGGTCGGCGGCCTCATGGACGTGCTGGTGA
[2]; [4]
  Kd: 45.8 ± 5.01 nM

B4: apVRK8 (F+R chains) (mixed)
DNA 1: B3 DNA
DNA 2: TCACCAGCACGTCCATGAGGCCGCCGACCCCCCGCTTACTTTCCCCCCCCCTCCCTGTAGTGGCATCCGAGCGT
[1]
  binding signal: > 2 fold over control

B5: apVRKF28 (V#F28) (ssDNA)
DNA: ACGCTCGGATGCCACTACAGGGACGGCGGATGGGGGCGGTGGGTGGGTTTCTTGCCTCATGGACGTGCTGGTGA
[2]; possible one G-quadruplex (predicted)
  Kd: 60.1 ± 7.05 nM

B6: apVRK28 (F+R chains) (mixed)
DNA 1: B5 DNA
DNA 2: TCACCAGCACGTCCATGAGGCAAGAAACCCACCCACCGCCCCCATCCGCCGTCCCTGTAGTGGCATCCGAGCGT
[1]
  binding signal: > 2 fold over control

B7: apVRKR28 (V#R28) (ssDNA)
DNA: B6 DNA 2
[3]
  binding result: binds
